This is an account of results in patent publication US20220162261A1 (published 2022).

Read-outs that look alike come from different tables or passages of the source. Bridge positions count the residues as written; N and C are the ends. Square brackets hold non-standard residues; d marks the D form. Phe(4-tBu) = CC(C)(C)c1ccc(C[C@H](N)C(=O)O)cc1; NMeR = CN[C@@H](CCCNC(=N)N)C(=O)O; β3hE = N[C@@H](CCC(=O)O)CC(=O)O; NMeK = CN[C@@H](CCCCN)C(=O)O; Pen = CC(C)(S)[C@H](N)C(=O)O; dNMeK = CN[C@H](CCCCN)C(=O)O

Assay [1] concerns the target T1, human α4β7 integrin on cells (human, UniProt P13612 34-1032; P26010 20-798).
T1 construct: whole, on cells; also called α4β7 cell (Hu); RPMI8866 cells
In words: RPMI8866 cell adhesion to MAdCAM-1.

Assay [2] addresses T1, human α4β7 integrin on cells. In words: PBMC memory T cell adhesion.
Assay [3] concerns the target T2, α4β1 (R&D Systems #5668-A4) (UniProt P13612 34-970; P05556 21-728, limits assumed).
T2 construct: bought; also called soluble α4β1
In words: competition ELISA vs VCAM-1.

In assay [4] the target is T3, rh integrin α4β7 (R&D Systems #5397-A30) (human, UniProt P13612 34-970; P26010 20-723).
T3 construct: bought; coated on a nickel coated plate; also called immobilized α4β7; immobilized α4β7 integrin protein
Kind of assay: competition ELISA vs MAdCAM-1.

Assay [5] deals with T4, mouse α4β7 integrin on TK1 cells (mouse, UniProt Q00651 41-1039; P26011 20-806).
T4 construct: whole, on cells; also called α4β7 cell (Mu); Cell Adhesion α4β7 Mouse
T4 sequence (Q00651 41-1039, chain 1 of 2): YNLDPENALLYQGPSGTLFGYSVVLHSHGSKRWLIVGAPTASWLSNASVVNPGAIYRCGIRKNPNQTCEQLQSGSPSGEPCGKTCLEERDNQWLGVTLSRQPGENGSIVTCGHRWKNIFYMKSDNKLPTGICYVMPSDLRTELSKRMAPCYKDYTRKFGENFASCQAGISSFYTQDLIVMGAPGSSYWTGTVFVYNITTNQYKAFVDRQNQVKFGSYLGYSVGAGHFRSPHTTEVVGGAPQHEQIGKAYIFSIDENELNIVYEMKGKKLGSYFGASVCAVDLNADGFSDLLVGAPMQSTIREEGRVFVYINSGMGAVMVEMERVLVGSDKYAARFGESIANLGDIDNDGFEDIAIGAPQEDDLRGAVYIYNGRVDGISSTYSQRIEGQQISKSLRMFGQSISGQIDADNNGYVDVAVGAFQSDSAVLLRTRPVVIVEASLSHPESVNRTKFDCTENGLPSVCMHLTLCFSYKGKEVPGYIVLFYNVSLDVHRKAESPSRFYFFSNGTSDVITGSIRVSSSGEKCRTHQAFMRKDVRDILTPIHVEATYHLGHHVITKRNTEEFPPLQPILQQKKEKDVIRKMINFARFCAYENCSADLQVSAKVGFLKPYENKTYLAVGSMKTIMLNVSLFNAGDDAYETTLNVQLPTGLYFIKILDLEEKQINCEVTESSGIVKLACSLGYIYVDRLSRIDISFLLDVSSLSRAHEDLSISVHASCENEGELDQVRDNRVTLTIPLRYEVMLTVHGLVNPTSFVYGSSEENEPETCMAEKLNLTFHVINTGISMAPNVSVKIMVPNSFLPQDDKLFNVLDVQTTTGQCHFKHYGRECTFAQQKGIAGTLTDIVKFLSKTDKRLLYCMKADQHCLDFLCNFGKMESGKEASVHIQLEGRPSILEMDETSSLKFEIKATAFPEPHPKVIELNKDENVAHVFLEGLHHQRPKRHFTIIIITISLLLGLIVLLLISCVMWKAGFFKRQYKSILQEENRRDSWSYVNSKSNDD
T4 sequence (P26011 20-806, chain 2 of 2): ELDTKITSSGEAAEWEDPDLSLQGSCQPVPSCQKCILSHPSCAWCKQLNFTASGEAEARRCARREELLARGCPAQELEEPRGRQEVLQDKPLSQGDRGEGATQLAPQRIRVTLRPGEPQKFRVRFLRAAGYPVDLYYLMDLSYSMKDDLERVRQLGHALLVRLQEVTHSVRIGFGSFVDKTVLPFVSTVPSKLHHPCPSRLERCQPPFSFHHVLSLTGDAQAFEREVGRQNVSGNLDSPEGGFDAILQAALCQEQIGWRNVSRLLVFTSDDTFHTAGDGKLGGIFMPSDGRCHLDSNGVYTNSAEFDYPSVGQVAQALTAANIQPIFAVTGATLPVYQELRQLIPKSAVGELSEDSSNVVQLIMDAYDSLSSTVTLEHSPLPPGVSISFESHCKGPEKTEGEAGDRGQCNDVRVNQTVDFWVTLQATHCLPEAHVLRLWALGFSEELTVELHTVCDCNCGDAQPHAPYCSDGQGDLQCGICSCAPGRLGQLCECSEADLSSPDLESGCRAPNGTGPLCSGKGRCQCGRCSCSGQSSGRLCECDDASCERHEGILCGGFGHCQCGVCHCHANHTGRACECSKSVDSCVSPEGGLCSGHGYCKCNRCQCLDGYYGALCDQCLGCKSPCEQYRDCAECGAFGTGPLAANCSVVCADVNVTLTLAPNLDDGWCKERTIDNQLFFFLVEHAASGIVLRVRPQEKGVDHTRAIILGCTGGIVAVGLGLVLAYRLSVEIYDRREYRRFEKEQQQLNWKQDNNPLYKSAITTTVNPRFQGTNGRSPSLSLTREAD
In words: TK1 cell adhesion to MAdCAM-1.

Assay [6] concerns the target T1, human α4β7 integrin on cells. Kind of assay: PBMC memory T cell adhesion. The source holds these as a separate data set.
In assay [7] the target is T5, human α4β1 integrin on cells (human, UniProt P13612 34-1032; P05556 21-798).
T5 construct: whole, on cells; also called α4β1 cell; Jurkat cells
Kind of assay: Jurkat cell adhesion to VCAM-1.

The target of assay [8] is T4, mouse α4β7 integrin on TK1 cells. In words: TK1 cell adhesion to MAdCAM-1. The source holds these as a separate data set.
Assay [9] concerns the target T2, α4β1 (R&D Systems #5668-A4). Kind of assay: competition ELISA vs VCAM-1. This is another data set of the same source.
In assay [10] the target is T3, rh integrin α4β7 (R&D Systems #5397-A30). Kind of assay: competition ELISA vs MAdCAM-1. The source holds these as a separate data set.
Assay [11] concerns the target T1, human α4β7 integrin on cells. In words: RPMI8866 cell adhesion to MAdCAM-1. The source holds these as a separate data set.

B1: SEQ ID NO: 149 (peptide)
peptide: Ac-[Pen][NMeR]SDTL[Pen][Phe(4-tBu)][β3hE][NMeK]-NH2
modifications: disulfide 1-7; not fully specified (residue 10); printed as (Ac Pen N-Me-R S D T L Pen F(4-tBu) b-H-E N-Me-K NH2)2 DIG, disulfide Pen-Pen; also: homodimer (…)2 DIG via Lys10 NZ
For the molecule B1, the IC50 was no more than 10 nM in assay [1]; no more than 10 nM in assay [2]; greater than 500 nM in [3]; no more than 10 nM in [4]; no more than 10 nM in [5].

B2: SEQ ID NO: 218 (peptide)
peptide: Ac-[Pen][NMeR]SDTL[Pen][Phe(4-tBu)][β3hE][dK]-NH2
modifications: disulfide 1-7; not fully specified (residue 10); printed as (Ac Pen N-Me-R S D T L Pen F(4-tBu) b-H-E k NH2)2 DIG, disulfide Pen-Pen; also: dimer, two subunits joined by DIG linker
notes: also called peptide 218
B2: the IC50 in assay [6] was 2 nM; in assay [7], greater than 100000 nM; in assay [8] it was 0.5 nM; in [9] it was 490 nM; in assay [10], 2.8 nM; in assay [11], 0.78 nM.

B3: SEQ ID NO: 153 (peptide)
peptide: Ac-[Pen][NMeR]SDTL[Pen][Phe(4-tBu)][β3hE][dK]-NH2
modifications: disulfide 1-7
SMILES: CC(=O)N[C@@H]1C(=O)N(C)[C@@H](CCCNC(=N)N)C(=O)N[C@@H](CO)C(=O)N[C@@H](CC(=O)O)C(=O)N[C@@H]([C@@H](C)O)C(=O)N[C@@H](CC(C)C)C(=O)N[C@H](C(=O)N[C@@H](Cc2ccc(C(C)(C)C)cc2)C(=O)N[C@@H](CCC(=O)O)CC(=O)N[C@H](CCCCN)C(N)=O)C(C)(C)SSC1(C)C
Consider B3, for which the IC50 was greater than 10 nM in assay [1], greater than 1000 nM in [3], greater than 10 nM in [4] and greater than 10 nM in assay [5].

B4: SEQ ID NO: 204 (peptide)
peptide: Ac-C[NMeR]SDTL[Pen]W[dK]-NH2
modifications: disulfide 1-7; also: homodimer via DIG linker on D-Lys9 side chains
notes: also called peptide 204
Turning to B4, the IC50 was 1280 nM in assay [6]; greater than 100000 nM in assay [7]; 463 nM in assay [9]; 2 nM in assay [10]; 22 nM in assay [11].

B5: SEQ ID NO: 141 (peptide)
peptide: Ac-[Pen][NMeR]SDTL[Pen]W[β3hE][NMeK]-NH2
modifications: disulfide 1-7; not fully specified (residue 10); printed as (Ac Pen N-Me-R S D T L Pen W b-H-E N-Me-K NH2)2 DIG, disulfide Pen-Pen; also: homodimer (…)2 DIG via Lys10 NZ
B5: the IC50 in assay [1] is no more than 10 nM; in assay [3], greater than 500 nM; in [4] it was no more than 10 nM.

B6: SEQ ID NO: 213 (peptide)
peptide: Ac-[Pen][NMeR]SDTL[Pen]W[β3hE][dK]-NH2
modifications: disulfide 1-7; not fully specified (residue 10); printed as (Ac Pen N-Me-R S D T L Pen W b-h-E k NH2)2 DIG, disulfide Pen-Pen; also: dimer, two subunits joined by DIG linker
notes: also called peptide 213; Peptide XX
As to B6, the IC50 is greater than 100000 nM in assay [7]; 4.2 nM in assay [8]; 539 nM in assay [9]; 4.7 nM in assay [10]; 12 nM in assay [11].

B7: SEQ ID NO: 217 (peptide)
peptide: Ac-[Pen][NMeR]SDTL[Pen]WE[dK]-NH2
modifications: disulfide 1-7; not fully specified (residue 10); printed as (Ac Pen N-Me-R S D T L Pen W E k NH2)2 DIG, disulfide Pen-Pen; also: dimer, two subunits joined by DIG linker
notes: also called peptide 217
In the case of B7, the IC50 in assay [7] is greater than 100000 nM; in [8], 1.2 nM; in [9], 315 nM; in assay [10], 2.3 nM; in assay [11], 3.2 nM.

B8: SEQ ID NO: 214 (peptide)
peptide: Ac-[Pen][NMeR]SDTL[Pen]WE[dNMeK]-NH2
modifications: disulfide 1-7; not fully specified (residue 10); printed as (Ac Pen N-Me-R S D T L Pen W E N-Me-k NH2)2 DIG, disulfide Pen-Pen; also: dimer, two subunits joined by DIG linker
notes: also called peptide 214
Regarding B8, the IC50 was 24.5 nM in assay [6]; 1.1 nM in assay [8]; 436 nM in [9]; 4.1 nM in [10]; 2.5 nM in assay [11].

B9: SEQ ID NO: 216 (peptide)
peptide: Ac-[Pen][NMeR]SDTL[Pen]W[dE][dK]-OH
modifications: disulfide 1-7; not fully specified (residue 10); printed as (Ac Pen N-Me-R S D T L Pen W e k OH)2 DIG, disulfide Pen-Pen; also: dimer, two subunits joined by DIG linker
notes: also called peptide 216
Consider B9, for which the IC50 is 14.5 nM in assay [6]; greater than 100000 nM in assay [7]; 1 nM in assay [8]; 247 nM in assay [9]; 2.8 nM in [10]; 4.2 nM in assay [11].

B10: SEQ ID NO: 215 (peptide)
peptide: Ac-[Pen][NMeR]SDTL[Pen]WE[NMeK]-NH2
modifications: disulfide 1-7; not fully specified; printed as [Ac-Pen-(N-Me-Arg)-Ser-Asp-Thr-Leu-Pen-Trp-Glu-(N-Me-Lys)-NH2]2-DIG; also: homodimer: two identical subunits joined by DIG linker at the Lys10 side chains, each subunit has its own Pen1-Pen7 disulfide
notes: also called peptide 215
For B10, the IC50 in assay [6] turned out to be 16.5 nM; in assay [8] it was 0.9 nM; in assay [9], 270 nM; in assay [10] it was 2.2 nM; in [11] it was 3 nM.

B11: SEQ ID NO: 211 (peptide)
peptide: Ac-[Pen][NMeR]SDTL[Pen]W[dE][dK]-NH2
modifications: disulfide 1-7; also: dimer, two subunits joined by DIG linker
notes: also called peptide 211
Turning to B11, the IC50 in [7] is greater than 100000 nM; in assay [8] it was 7.3 nM; in [9], 302 nM; in [10] it was 3 nM; in assay [11], 22 nM.

B12: SEQ ID NO: 203 (peptide)
peptide: Ac-C[NMeR]SDTL[Pen][dK]-NH2
modifications: disulfide 1-7; also: homodimer via IDA linker on D-Lys8 side chains
notes: also called peptide 203
As for B12, the IC50 in assay [7] is greater than 100000 nM; in assay [8] it was 633 nM; in assay [9], 700 nM; in [10], 7.5 nM; in assay [11], 200 nM.

B13: SEQ ID NO: 146 (peptide)
peptide: XRSDTLXWE
modifications: Ac Pen N-Me-R S D T L Pen W b-H-E OH; disulfide Pen-Pen
Regarding B13, the IC50 in assay [1] is greater than 50 nM; in assay [3] it was greater than 1000 nM; in [5], greater than 50 nM.

B14: SEQ ID NO: 152 (peptide)
peptide: Ac-[Pen][NMeR]SDTL[Pen][Phe(4-tBu)][β3hE]-OH
modifications: disulfide 1-7
SMILES: CC(=O)N[C@@H]1C(=O)N(C)[C@@H](CCCNC(=N)N)C(=O)N[C@@H](CO)C(=O)N[C@@H](CC(=O)O)C(=O)N[C@@H]([C@@H](C)O)C(=O)N[C@@H](CC(C)C)C(=O)N[C@H](C(=O)N[C@@H](Cc2ccc(C(C)(C)C)cc2)C(=O)N[C@@H](CCC(=O)O)CC(=O)O)C(C)(C)SSC1(C)C
B14: the IC50 in assay [1] was no more than 10 nM; in assay [2], greater than 25 nM; in assay [3], greater than 100 nM; in assay [4], no more than 10 nM; in [5] it was no more than 10 nM.

B15: SEQ ID NO: 209 (peptide)
peptide: XRSDTLXWK
modifications: (Ac Pen N-Me-R S D T L Pen W k NH2)2 DIG; disulfide Pen-Pen
notes: also called peptide 209
For the molecule B15, the IC50 in assay [6] was 260 nM; in assay [7], greater than 100000 nM; in assay [8], 51 nM; in [9] it was 368 nM; in assay [10], 2.3 nM; in [11] it was 24 nM.
